# Test results published in US20030100501A1 (CASE WESTERN RESERVE UNIVERSITY, published 2003).
# Square brackets hold non-standard residues; d marks the D form. Ends that are not written are not given here. Nle = CCCC[C@H](N)C(=O)O
# Key:
# [1] = molecular target: mutant G551D CFTR (UniProt P13569 1-1480, limits assumed); assay: cell-based or functional assay
# [2] = molecular target: wild-type CFTR (cystic fibrosis transmembrane conductance regulator) (UniProt P13569 1-1480, limits assumed); assay: cell-based or functional assay
# Sequence of wild-type CFTR (cystic fibrosis transmembrane conductance regulator) (P13569 whole entry): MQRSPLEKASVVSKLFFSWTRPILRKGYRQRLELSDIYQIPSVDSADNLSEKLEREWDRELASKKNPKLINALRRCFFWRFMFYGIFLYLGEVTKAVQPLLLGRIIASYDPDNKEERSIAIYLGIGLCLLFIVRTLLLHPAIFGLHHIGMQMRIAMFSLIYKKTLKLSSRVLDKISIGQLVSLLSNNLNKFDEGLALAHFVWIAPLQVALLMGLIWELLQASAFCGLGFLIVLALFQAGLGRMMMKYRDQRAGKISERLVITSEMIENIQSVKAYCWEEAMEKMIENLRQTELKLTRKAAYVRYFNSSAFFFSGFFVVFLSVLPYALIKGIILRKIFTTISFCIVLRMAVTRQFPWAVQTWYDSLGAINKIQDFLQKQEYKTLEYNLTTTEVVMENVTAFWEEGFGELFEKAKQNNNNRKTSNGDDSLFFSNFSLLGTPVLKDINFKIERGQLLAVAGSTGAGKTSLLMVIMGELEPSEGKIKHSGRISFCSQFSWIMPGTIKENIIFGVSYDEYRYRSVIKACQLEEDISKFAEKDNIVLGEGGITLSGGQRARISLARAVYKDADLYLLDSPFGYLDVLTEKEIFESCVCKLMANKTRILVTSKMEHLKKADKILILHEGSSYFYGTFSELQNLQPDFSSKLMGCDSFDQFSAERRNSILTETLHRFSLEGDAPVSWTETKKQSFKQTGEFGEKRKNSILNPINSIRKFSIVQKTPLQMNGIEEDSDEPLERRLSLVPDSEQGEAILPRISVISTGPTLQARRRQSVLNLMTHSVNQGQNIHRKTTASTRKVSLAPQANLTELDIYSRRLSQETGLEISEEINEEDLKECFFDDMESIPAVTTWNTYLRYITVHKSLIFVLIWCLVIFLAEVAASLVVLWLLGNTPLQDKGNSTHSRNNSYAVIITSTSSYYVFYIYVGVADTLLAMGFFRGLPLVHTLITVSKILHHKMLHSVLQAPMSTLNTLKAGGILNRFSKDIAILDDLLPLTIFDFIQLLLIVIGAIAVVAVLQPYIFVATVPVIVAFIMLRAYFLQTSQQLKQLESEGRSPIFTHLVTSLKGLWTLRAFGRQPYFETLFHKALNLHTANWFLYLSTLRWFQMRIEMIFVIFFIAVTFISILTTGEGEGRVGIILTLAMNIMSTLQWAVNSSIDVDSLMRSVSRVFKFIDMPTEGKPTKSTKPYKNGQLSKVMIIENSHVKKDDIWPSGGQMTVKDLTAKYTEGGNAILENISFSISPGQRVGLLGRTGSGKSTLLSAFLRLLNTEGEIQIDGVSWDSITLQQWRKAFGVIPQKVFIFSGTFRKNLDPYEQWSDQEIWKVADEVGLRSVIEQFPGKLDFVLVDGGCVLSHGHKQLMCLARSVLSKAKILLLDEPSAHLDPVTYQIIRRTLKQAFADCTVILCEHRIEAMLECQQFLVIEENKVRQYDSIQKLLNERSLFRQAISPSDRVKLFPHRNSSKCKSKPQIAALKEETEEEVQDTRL
# Sequence of mutant G551D CFTR (P13569 whole entry G551D): as the sequence (P13569 whole entry) above, with G551D counted along it
binder,measurement,setting,value
Ac-GLEISEQINQQNLKQSFFND[Nle]E [Q4N2NEG2 polypeptide],open probability in planar lipid bilayer,[1],~3 fold
same,open probability (Po) of CFTR channels in planar lipid bilayer,[2],2 fold
same,"open probability of single wt-CFTR channels in planar lipid bilayer, 4 µM peptide, 5 experiments",[2],~2 fold
